The values below come from article PMC3563690 (The Journal of Cell Biology, 2013).

What all share (test): immunostaining of cells or tissue
Test [1] concerns the target HA-neurexin1β(−S4) (mouse | rat).
Test [2] has as its target T1, HA-tagged mouse MDGA2 (mouse).
T1 sequence (P60755 whole entry, looked up): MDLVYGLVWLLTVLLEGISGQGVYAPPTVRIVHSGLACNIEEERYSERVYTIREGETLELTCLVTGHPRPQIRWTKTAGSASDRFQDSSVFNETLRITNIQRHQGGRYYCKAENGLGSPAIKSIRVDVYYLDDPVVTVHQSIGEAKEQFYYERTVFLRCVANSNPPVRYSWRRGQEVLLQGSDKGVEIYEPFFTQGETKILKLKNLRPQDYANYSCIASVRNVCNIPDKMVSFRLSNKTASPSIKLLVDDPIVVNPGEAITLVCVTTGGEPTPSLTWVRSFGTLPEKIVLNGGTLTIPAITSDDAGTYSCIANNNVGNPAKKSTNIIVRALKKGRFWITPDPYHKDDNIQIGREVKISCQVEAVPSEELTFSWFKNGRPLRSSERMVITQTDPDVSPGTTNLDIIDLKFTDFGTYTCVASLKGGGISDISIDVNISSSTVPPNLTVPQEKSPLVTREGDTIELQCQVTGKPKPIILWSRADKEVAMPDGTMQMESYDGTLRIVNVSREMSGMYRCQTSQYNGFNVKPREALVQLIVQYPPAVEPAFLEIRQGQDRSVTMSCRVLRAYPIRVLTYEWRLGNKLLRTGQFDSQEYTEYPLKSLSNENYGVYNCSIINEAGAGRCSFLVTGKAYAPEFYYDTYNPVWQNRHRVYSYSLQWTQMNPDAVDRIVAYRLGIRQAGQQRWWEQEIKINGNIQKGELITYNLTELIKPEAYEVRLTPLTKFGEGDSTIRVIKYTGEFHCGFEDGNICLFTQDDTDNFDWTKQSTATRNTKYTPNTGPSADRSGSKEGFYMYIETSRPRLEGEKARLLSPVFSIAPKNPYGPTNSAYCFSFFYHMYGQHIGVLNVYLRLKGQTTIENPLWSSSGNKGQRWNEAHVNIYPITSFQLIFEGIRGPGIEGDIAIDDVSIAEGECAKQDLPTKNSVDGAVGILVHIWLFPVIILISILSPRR

Test [3] addresses T2, extracellular HA-tagged rat MDGA1 (rat, UniProt P85171 19-933).
T2 sequence (looked up): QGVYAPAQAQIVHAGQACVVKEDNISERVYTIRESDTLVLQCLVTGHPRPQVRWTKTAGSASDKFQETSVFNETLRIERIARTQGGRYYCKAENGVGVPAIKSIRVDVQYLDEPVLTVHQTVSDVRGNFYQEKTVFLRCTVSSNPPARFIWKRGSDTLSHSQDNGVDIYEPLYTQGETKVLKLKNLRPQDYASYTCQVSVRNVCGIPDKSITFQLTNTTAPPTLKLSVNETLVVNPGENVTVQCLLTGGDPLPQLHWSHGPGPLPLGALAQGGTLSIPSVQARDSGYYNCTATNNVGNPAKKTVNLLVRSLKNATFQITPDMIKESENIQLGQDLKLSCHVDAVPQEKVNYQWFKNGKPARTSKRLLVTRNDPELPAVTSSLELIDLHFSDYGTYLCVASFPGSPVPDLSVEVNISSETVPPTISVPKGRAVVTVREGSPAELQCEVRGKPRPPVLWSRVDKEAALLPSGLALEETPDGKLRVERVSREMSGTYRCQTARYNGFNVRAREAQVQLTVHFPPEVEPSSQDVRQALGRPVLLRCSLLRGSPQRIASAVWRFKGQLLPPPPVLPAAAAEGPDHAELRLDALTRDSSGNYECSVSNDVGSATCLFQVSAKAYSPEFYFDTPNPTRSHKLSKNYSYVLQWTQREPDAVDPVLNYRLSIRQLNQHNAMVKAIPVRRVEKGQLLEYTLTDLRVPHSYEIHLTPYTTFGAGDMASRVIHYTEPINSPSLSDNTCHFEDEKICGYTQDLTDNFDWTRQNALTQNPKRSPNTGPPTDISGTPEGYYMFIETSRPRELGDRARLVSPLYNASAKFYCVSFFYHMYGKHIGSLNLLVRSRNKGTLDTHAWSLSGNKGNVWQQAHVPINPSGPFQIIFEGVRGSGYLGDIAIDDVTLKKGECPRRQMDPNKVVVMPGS

“soluble neuroligin-2–Fc fusion protein (from UniProt Q69ZK9 15-676)”: the Kd in test [1] was determined as 8.4 nM; in test [2] it was 45.9 nM.

B1: soluble neuroligin-2–Fc fusion protein (Fc fusion, UniProt Q69ZK9 15-676, looked up)
chain: QRGGGGPGGGAPGGPGLGLGSLGEERFPVVNTAYGRVRGVRRELNNEILGPVVQFLGVPYATPPLGARRFQPPEAPASWPGVRNATTLPPACPQNLHGALPAIMLPVWFTDNLEAAATYVQNQSEDCLYLNLYVPTEDGPLTKKRDEATLNPPDTDIRDSGKKPVMLFLHGGSYMEGTGNMFDGSVLAAYGNVIVVTLNYRLGVLGFLSTGDQAAKGNYGLLDQIQALRWLSENIAHFGGDPERITIFGSGAGASCVNLLILSHHSEGLFQKAIAQSGTAISSWSVNYQPLKYTRLLAAKVGCDREDSTEAVECLRRKSSRELVDQDVQPARYHIAFGPVVDGDVVPDDPEILMQQGEFLNYDMLIGVNQGEGLKFVEDSAESEDGVSASAFDFTVSNFVDNLYGYPEGKDVLRETIKFMYTDWADRDNGEMRRKTLLALFTDHQWVAPAVATAKLHADYQSPVYFYTFYHHCQAEGRPEWADAAHGDELPYVFGVPMVGATDLFPCNFSKNDVMLSAVVMTYWTNFAKTGDPNQPVPQDTKFIHTKPNRFEEVVWSKFNSKEKQYLHIGLKPRVRDNYRANKVAFWLELVPHLHNLHTELFTTTTRLPPYATRWPPRTPGPGTSGTRRPPPPATLPPESDIDLGPRAYDRFPGDSRDYSTE
In turn, B1 displayed a Kd in test [3] of 7.3 nM.

For orientation: Kd means a measure of binding affinity in units of concentration.
